Assay results as given in patent publication US20190361034A1.

Tests used:
[1] = biological target: MHC class II molecules on MHC class II-expressing Raji cells (human); assay: direct ELISA, plate-immobilised Raji cells; 10% FBS, 10,000 cells; 250 ng/ml
[2] = biological target: MHC class II molecules on MHC class II-expressing Raji cells (human); assay: direct ELISA, plate-immobilised Raji cells; 10% FBS, 5,000 cells; 31.25 ng/ml
[3] = biological target: MHC class II molecules on MHC class II-expressing Raji cells (human); assay: transfer cell ELISA, Raji cells; 62.5 ng/ml; plate row C
[4] = biological target: MHC class II molecules on MHC class II-expressing Raji cells (human); assay: direct ELISA, plate-immobilised Raji cells; 10% FBS, 5,000 cells; 500 ng/ml
[5] = biological target: MHC class II molecules on MHC class II-expressing Raji cells (human); assay: direct ELISA, plate-immobilised Raji cells; 5% BSA, 2,500 cells; 1000 ng/ml
[6] = biological target: MHC class II molecules on MHC class II-expressing Raji cells (human); assay: transfer cell ELISA, Raji cells; 3.906 ng/ml; plate row C
[7] = biological target: MHC class II molecules on MHC class II-expressing Raji cells (human); assay: transfer cell ELISA, Raji cells; 1.953 ng/ml; plate row D
[8] = biological target: MHC class II molecules on MHC class II-expressing Raji cells (human); assay: direct ELISA, plate-immobilised Raji cells; 5% BSA, 2,500 cells; 250 ng/ml
[9] = biological target: MHC class II molecules on MHC class II-expressing Raji cells (human); assay: transfer cell ELISA, Raji cells; 500 ng/ml; plate row D
[10] = biological target: MHC class II molecules on MHC class II-expressing Raji cells (human); assay: transfer cell ELISA, Raji cells; 1000 ng/ml; plate row D
[11] = biological target: MHC class II molecules on MHC class II-expressing Raji cells (human); assay: transfer cell ELISA, Raji cells; 7.813 ng/ml; plate row D
[12] = biological target: MHC class II molecules on MHC class II-expressing Raji cells (human); assay: direct ELISA, plate-immobilised Raji cells; 10% FBS, 2,500 cells; 125 ng/ml
[13] = biological target: MHC class II molecules on MHC class II-expressing Raji cells (human); assay: direct ELISA, plate-immobilised Raji cells; 10% FBS, 5,000 cells; 125 ng/ml
[14] = biological target: MHC class II molecules on MHC class II-expressing Raji cells (human); assay: direct ELISA, plate-immobilised Raji cells; 10% FBS, 5,000 cells; 62.5 ng/ml
[15] = biological target: MHC class II molecules on MHC class II-expressing Raji cells (human); assay: direct ELISA, plate-immobilised Raji cells; 5% BSA, 10,000 cells; 1000 ng/ml
[16] = biological target: MHC class II molecules on MHC class II-expressing Raji cells (human); assay: transfer cell ELISA, Raji cells; 1000 ng/ml; plate row C
[17] = biological target: MHC class II molecules on MHC class II-expressing Raji cells (human); assay: transfer cell ELISA, Raji cells; 125 ng/ml; plate row C
[18] = biological target: MHC class II molecules on MHC class II-expressing Raji cells (human); assay: direct ELISA, plate-immobilised Raji cells; 10% FBS, 2,500 cells; 1000 ng/ml
[19] = biological target: MHC class II molecules on MHC class II-expressing Raji cells (human); assay: direct ELISA, plate-immobilised Raji cells; 3% gelatin, 2,500 cells; 250 ng/ml
[20] = biological target: MHC class II molecules on MHC class II-expressing Raji cells (human); assay: direct ELISA, plate-immobilised Raji cells; 3% gelatin, 10,000 cells; 62.5 ng/ml
[21] = biological target: MHC class II molecules on MHC class II-expressing Raji cells (human); assay: direct ELISA, plate-immobilised Raji cells; 0.5% Casein, 2,500 cells; 31.25 ng/ml
[22] = biological target: MHC class II molecules on MHC class II-expressing Raji cells (human); assay: direct ELISA, plate-immobilised Raji cells; 0.5% Casein, 5,000 cells; 15.625 ng/ml
[23] = biological target: MHC class II molecules on MHC class II-expressing Raji cells (human); assay: direct ELISA, plate-immobilised Raji cells; 0.5% Casein, 10,000 cells; 1000 ng/ml
[24] = biological target: MHC class II molecules on MHC class II-expressing Raji cells (human); assay: BLI; immobilised sample, Raji cells in solution; pH 7.0 control of FIG. 21
[25] = biological target: MHC class II molecules on MHC class II-expressing Raji cells (human); assay: direct ELISA, plate-immobilised Raji cells; 3% gelatin, 5,000 cells; 500 ng/ml
[26] = biological target: MHC class II molecules on MHC class II-expressing Raji cells (human); assay: BLI; IMP321 sample at 125% binding potency, Raji cells in solution; relative to reference standard
[27] = biological target: MHC class II molecules on MHC class II-expressing Raji cells (human); assay: direct ELISA, plate-immobilised Raji cells; 0.5% Casein, 5,000 cells; 62.5 ng/ml
[28] = biological target: MHC class II molecules on MHC class II-expressing Raji cells (human); assay: BLI; IMP321 sample at 150% binding potency, Raji cells in solution; relative to reference standard
[29] = biological target: MHC class II molecules on MHC class II-expressing Raji cells (human); assay: transfer cell ELISA, Raji cells; 1.953 ng/ml
[30] = biological target: MHC class II molecules on MHC class II-expressing Raji cells (human); assay: direct ELISA, plate-immobilised Raji cells; 3% gelatin, 5,000 cells; 62.5 ng/ml
[31] = biological target: MHC class II molecules on MHC class II-expressing Raji cells (human); assay: direct ELISA, plate-immobilised Raji cells; 3% gelatin, 10,000 cells; 31.25 ng/ml
[32] = biological target: MHC class II molecules on MHC class II-expressing Raji cells (human); assay: direct ELISA, plate-immobilised Raji cells; 0.5% Casein, 2,500 cells; 1000 ng/ml
[33] = biological target: MHC class II molecules on MHC class II-expressing Raji cells (human); assay: BLI; immobilised sample, Raji cells in solution; pH 7.0 control of FIG. 22

In the case of “IMP321 treated with Peptide-N-Glycosidase F (PNGase F) (Fc fusion)”, the OD (ELISA signal) [1] is reported as 0.762 OD, the OD (ELISA signal) [2] is reported as 0.304 OD and the OD (ELISA signal) [3] is reported as 0.082 OD. For the same substance, the OD (ELISA signal) [4] was 1.63 OD, the OD (ELISA signal) [5] was 1.83 OD and the OD (ELISA signal) [6] was 0.012 OD. The OD (ELISA signal) [7] was 0.01 OD, the OD (ELISA signal) [8] was 0.893 OD and the OD (ELISA signal) [9] was 0.594 OD. For the same substance, the OD (ELISA signal) [10] was 1.13 OD, the OD (ELISA signal) [11] was 0.02 OD and the OD (ELISA signal) [12] was 1.12 OD. It also gave an OD (ELISA signal) [13] of 0.443 OD, an OD (ELISA signal) [14] of 0.28 OD and an OD (ELISA signal) [15] of 1.77 OD. For the same substance, the OD (ELISA signal) [16] was 0.878 OD, the OD (ELISA signal) [17] was 0.166 OD and the OD (ELISA signal) [18] was 2.39 OD.
For “IMP321, recombinant soluble human LAG-3Ig fusion protein (Fc fusion)”, the OD (ELISA signal) [19] was 1.95 OD, the OD (ELISA signal) [20] was 0.417 OD and the OD (ELISA signal) [21] was 0.149 OD. For the same substance, the OD (ELISA signal) [22] was 0.207 OD, the OD (ELISA signal) [23] was 0.16 OD and the Bioactivity (binding) [24] was 95%. For the same substance, the OD (ELISA signal) [25] was 1.88 OD, the Potency determined by BLI assay [26] was 135% and the OD (ELISA signal) [27] was 0.131 OD. For the same substance, the Potency determined by BLI assay [28] was 150%, the OD (ELISA signal) [29] was 0.026 OD and the OD (ELISA signal) [30] was 0.464 OD. The OD (ELISA signal) [31] was 0.389 OD, the OD (ELISA signal) [32] was 0.112 OD and the Bioactivity (binding) [33] was 94%.
